Source: US20250282885A1 (VST BIO, published 2025)

Experiments:
human Sdc2 [1] = molecular target: T1, human Sdc2 (human, UniProt P34741 19-144, limits assumed); assay: Octet tandem binning; saturating Ab m6 19838-20H19-AA (marked non-binding ligand)
T1 construct: Antigen of the Octet tandem binning, loaded on biosensors at 100 nM; also called huSdc2; hSdc2

pig Sdc2 [2] = molecular target: T2, pig Sdc2 (pig, UniProt F1S0L5 19-145); assay: Octet BLI, HIS1K sensor loaded with pigSdc2, antibody as sample; Full R2 0.9799
T2 construct: also called pSdc2

[3] = molecular target: human Sdc2 on Human Umbilical Vein Endothelial Cells (HUVEC) (human, UniProt P34741 19-201); assay: cell-based or functional assay
human Sdc2 [4] = molecular target: T1, human Sdc2; assay: Octet tandem binning; saturating Ab m7 19844-R3-P1-E07
human Sdc2 [5] = molecular target: T1, human Sdc2; assay: Octet tandem binning; saturating Ab f11 19838-20-H19-A
human Sdc2 [6] = molecular target: T1, human Sdc2; assay: Octet tandem binning; saturating Ab f10 19838-10-I12-A
human Sdc2 [7] = molecular target: T1, human Sdc2; assay: Octet tandem binning; saturating Ab f4 19844-R3-P3-C11
Summary of the method: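 Octet sensors bearing 100 nM human Sdc2 got a 240 s saturating-antibody dip at 25 μg/ml and then a 180 s competitor dip at 5 μg/ml. Signal ratios are relative to buffer in place of the saturating step.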

pig Sdc2 [8] = molecular target: T2, pig Sdc2; assay: Octet BLI, heading box over the sensorgram; the box prints nm, the table gives 1.50E-08 M
Procedure: (§1) In order to characterize the binding affinity and in vivo/in vitro functional ability of the twelve clones generated by the previous studies and disclosed in Table 1, a series of assays were performed on each clone. These assays measured the affinity of each antibody clone for human, pig, and mouse Sdc2 using an Octet® binding assay system. Additionally, the functional ability of each clone to inhibit VEGFA-driven permeability (see Santiago, et al. (2021) J Am Heart Assoc. 10(18):e020521) was assessed in two therapeutic settings: a “prevention” study in which three concentrations of antibody (5 μg/ml, 10 μg/ml, 15 μg/ml, 20 μg/ml, and/or 40 μg/ml depending on the study) were pre-incubated for an hour before administration of 100 ng/ml of VEGFA, and a “treatment” study in which 3 hours of pre-treatment with 100 ng/ml VEGFA were followed by treatment with antibody at 20 μg/ml or 40 μg/ml. Results are shown for 8-G17 in FIG. 8 and FIG. 9, 20-H19-AB in FIG. 10 and FIG. 11 (FIG. 12 for monkey ECs), R3-P3-C11 in FIG. 13 and FIG. 14, R4M-P3-E06 in FIG. 15 and FIG. 16, R3-P3-E09 in FIG. 17 and FIG. 18, R3-P1-C02 in FIG. 19 and FIG. 20, R3-P3-A12 in FIG. 21 and FIG. 22, R4M-P3-A12 in FIG. 23 and FIG. 24, and R4M-P1-A10 in FIG. 25 and FIG. 26.

human Sdc2 [9] = molecular target: T1, human Sdc2; assay: Octet tandem binning; saturating Ab m3 19844-R3-P1-C02 (row boxed, self-self >0.09)
human Sdc2 [10] = molecular target: T1, human Sdc2; assay: Octet tandem binning; saturating Ab f3 19838-6N03-A
human Sdc2 [11] = molecular target: T1, human Sdc2; assay: Octet BLI, heading box over the sensorgram
Procedure: as §1

human Sdc2 [12] = molecular target: T1, human Sdc2; assay: Octet tandem binning; saturating Ab m1 19838-20H19-AB
human Sdc2 [13] = molecular target: T1, human Sdc2; assay: Octet tandem binning; saturating Ab f5 19844-R4M-P3-E06
human Sdc2 [14] = molecular target: T1, human Sdc2; assay: Octet tandem binning; saturating Ab m2 19838-8G17-A
human Sdc2 [15] = molecular target: T1, human Sdc2; assay: Kd (human Sdc2), summary table of the mAbs
human Sdc2 [16] = molecular target: T1, human Sdc2; assay: Octet tandem binning; saturating Ab f8 19844-R4M-P2-C02
human Sdc2 [17] = molecular target: T1, human Sdc2; assay: Octet tandem binning; saturating Ab m8 19844-R4M-P1-B01 (marked non-binding ligand)
human Sdc2 [18] = molecular target: T1, human Sdc2; assay: Octet tandem binning; Buffer in place of a saturating Ab

T1 sequence (P34741 19-144 limits assumed): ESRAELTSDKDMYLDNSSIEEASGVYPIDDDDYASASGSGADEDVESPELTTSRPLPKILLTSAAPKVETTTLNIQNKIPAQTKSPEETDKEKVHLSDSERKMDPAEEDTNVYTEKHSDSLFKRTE
human Sdc2 on Human Umbilical Vein Endothelial Cells (HUVEC), sequence (P34741 19-201 limits assumed): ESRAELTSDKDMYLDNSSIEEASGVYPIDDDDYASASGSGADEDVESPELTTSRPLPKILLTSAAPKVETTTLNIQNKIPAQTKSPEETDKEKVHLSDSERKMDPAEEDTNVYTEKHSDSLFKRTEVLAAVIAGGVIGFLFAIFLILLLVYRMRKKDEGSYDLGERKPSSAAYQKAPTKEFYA

B1: R4M-P3-A12 (antibody, human IgG1, kappa, V domains shown)
VH: EVQLVESGGGVVQPGGSLRLSCAASGFTFSDHYMSWIRQAPGKGLEWVSYLSGSGTSIYYADSVKGRFTISRDNAKKSLYLQMNSLRAEDTAVYYCARVGPAAGNAFDIWGQGTMVTVSS
VL: QSVLTQPPSASGTPGQRVTISCSGSSSNIGSNYVYWYQQLPGTAPKLLIYRNNQRPSGVPDRFSGSKSGTSASLAITGLQAEDEADYYCQSYDSSLSGVVFGGGTKLTVLR
- raw competing-Ab binding signal (human Sdc2 [1]): 0.165
- Kd (pig Sdc2 [2]): 15 nM
- koff (pig Sdc2 [2]): 0.0419 s⁻¹
- kon (pig Sdc2 [2]): 2.8e+06 M⁻¹ s⁻¹
- % Inhibition of VEGFA-induced permeability at 24hrs (20ug/ml) [3]: 60%
- raw competing-Ab binding signal (human Sdc2 [4]): 0.132
- raw competing-Ab binding signal (human Sdc2 [5]): 0.165
- raw competing-Ab binding signal (human Sdc2 [6]): 0.152
- raw competing-Ab binding signal (human Sdc2 [7]): -0.0875
- Kd (pig Sdc2 [8]): ~15 nM
- raw competing-Ab binding signal (human Sdc2 [9]): 0.0422
- raw competing-Ab binding signal (human Sdc2 [10]): 0.106
- Kd (human Sdc2 [11]): ~14 nM
- raw competing-Ab binding signal (human Sdc2 [12]): 0.153
- raw competing-Ab binding signal (human Sdc2 [13]): 0.0642
- raw competing-Ab binding signal (human Sdc2 [14]): 0.103
- Kd (human Sdc2 [15]): 14 nM
- raw competing-Ab binding signal (human Sdc2 [16]): 0.0077
- raw competing-Ab binding signal (human Sdc2 [17]): 0.0929
- raw competing-Ab binding signal (human Sdc2 [18]): 0.0926
